Data on one molecule can be found in US20250313625A1 (ELPISCIENCE SUZHOU BIOPHARMA, published 2025).

Usually Kd stands for a measure of binding affinity in units of concentration. Usually koff stands for a measure of how fast the partners let go of each other. Lower therefore signals slow dissociation. For orientation: kon means a measure of how fast the partners come together. Read a high kon as fast association. For orientation: EC50 means the concentration at which the effect is half-maximal. The low end stands for an effect from little substance, the high end for a need for much substance. A word on the IC50: it is the concentration needed to halve the response being measured.

Like-named read-outs stand apart in the source and are kept apart here.

Experiment [1] concerns the target T1, human LAG3 (form used in Octet, Biacore and HDX-MS not given) (human, UniProt P18627 23-450, limits assumed).
T1 sequence (looked up): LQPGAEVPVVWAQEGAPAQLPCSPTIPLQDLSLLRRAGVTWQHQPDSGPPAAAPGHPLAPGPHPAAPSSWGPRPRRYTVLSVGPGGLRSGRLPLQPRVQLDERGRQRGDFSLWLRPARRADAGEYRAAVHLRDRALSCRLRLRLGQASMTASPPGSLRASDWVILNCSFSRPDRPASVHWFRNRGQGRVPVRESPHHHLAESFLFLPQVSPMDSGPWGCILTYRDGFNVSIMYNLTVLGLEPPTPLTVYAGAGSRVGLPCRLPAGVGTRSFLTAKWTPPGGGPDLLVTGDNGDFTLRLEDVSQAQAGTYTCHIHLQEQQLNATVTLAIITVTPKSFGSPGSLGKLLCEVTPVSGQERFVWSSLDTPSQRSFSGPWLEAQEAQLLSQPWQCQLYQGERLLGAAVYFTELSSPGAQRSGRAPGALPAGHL
In words: BLI (Octet). A general note: BLI is a label-free optical method that tracks binding on a fibre tip over time.

For experiment [2], the target named is T1, human LAG3 (form used in Octet, Biacore …). In words: BLI (Octet), 1:1 fit. On the procedure: The purified chimeric antibodies were characterized for binding affinity against human LAG3 using Bio-Layer Interferometry technology (Octet system). The association and dissociation curves were fit with 1:1 binding model, and the Ka/Kd/KD values for each antibody were calculated.

Experiment [3] has as its target T2, human LAG3, full length, stably expressed on cells (human, UniProt P18627 23-525).
T2 construct: whole, on cells; also called CHOK1-human LAG3
T2 sequence (looked up): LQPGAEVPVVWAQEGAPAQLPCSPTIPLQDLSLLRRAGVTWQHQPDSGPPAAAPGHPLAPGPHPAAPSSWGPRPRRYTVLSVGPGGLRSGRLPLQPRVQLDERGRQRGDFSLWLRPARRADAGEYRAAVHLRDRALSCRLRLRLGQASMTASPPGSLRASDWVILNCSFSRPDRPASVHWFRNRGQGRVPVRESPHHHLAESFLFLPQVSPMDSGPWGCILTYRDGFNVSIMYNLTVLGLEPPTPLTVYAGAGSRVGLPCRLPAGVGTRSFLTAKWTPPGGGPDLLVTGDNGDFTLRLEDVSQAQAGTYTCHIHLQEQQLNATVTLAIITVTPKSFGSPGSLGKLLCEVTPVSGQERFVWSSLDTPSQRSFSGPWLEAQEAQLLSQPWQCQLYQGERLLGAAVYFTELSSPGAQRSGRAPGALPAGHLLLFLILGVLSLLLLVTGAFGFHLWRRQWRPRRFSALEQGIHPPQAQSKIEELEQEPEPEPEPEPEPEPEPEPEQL
In words: FACS on 293F cells stably expressing human LAG3. The procedure: (§1) Briefly the antibodies were incubated with 2×10⁵ target cells at 4° C. for 1 hour. After washing, fluorescence labeled anti-mouse IgG 2nd antibody (Life Technologies) was added and incubated at 4° C. for 1 hour. Geometric median fluorescence intensity (MFI) was detected and EC₅₀ was calculated using GraphPad Prism9.0.
(§2) MFI was detected and EC₅₀ was calculated using GraphPad Prism9.0.

The target of experiment [4] is T2, human LAG3, full length, stably …. In words: FACS on 293F cells stably expressing human LAG3. The procedure:
as §1, §2
This is another data set of the same source.

Experiment [5] deals with T3, mFc tagged human LAG3 ECD recombinant protein (human, UniProt P18627 23-450).
T3 construct: extracellular domain; purchased from Biointron; not shown: mouse IgG Fc (mFc) tag
T3 sequence (looked up): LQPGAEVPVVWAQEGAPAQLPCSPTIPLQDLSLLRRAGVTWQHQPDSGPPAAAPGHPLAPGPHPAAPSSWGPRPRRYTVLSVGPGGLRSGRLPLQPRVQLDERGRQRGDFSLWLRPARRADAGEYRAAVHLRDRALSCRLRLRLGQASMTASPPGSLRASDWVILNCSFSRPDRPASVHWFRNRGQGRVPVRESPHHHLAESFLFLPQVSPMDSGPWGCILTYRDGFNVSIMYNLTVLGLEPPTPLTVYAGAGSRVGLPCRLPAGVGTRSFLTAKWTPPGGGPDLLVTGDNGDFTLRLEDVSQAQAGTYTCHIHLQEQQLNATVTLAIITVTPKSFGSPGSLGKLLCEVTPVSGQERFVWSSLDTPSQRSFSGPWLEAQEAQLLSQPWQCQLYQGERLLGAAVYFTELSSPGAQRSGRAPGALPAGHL
As to the kind of experiment: competitive FACS: mFc-LAG3 ECD binding to Raji cells (MHC II). The procedure:
Activity of the purified chimeric antibodies to block LAG3 and MHC II interaction was determined by competitive FACS assay. […] After washing, dye labeled anti-mouse Fc 2nd antibody (Sigma) was added and incubated at 37° C. for 1 hour. Fluorescence intensity was detected.

For experiment [6], the target named is T4, human LAG3 ECD recombinant protein (plate coated, tag not stated) (human, UniProt P18627 23-450).
T4 construct: extracellular domain
T4 sequence (looked up): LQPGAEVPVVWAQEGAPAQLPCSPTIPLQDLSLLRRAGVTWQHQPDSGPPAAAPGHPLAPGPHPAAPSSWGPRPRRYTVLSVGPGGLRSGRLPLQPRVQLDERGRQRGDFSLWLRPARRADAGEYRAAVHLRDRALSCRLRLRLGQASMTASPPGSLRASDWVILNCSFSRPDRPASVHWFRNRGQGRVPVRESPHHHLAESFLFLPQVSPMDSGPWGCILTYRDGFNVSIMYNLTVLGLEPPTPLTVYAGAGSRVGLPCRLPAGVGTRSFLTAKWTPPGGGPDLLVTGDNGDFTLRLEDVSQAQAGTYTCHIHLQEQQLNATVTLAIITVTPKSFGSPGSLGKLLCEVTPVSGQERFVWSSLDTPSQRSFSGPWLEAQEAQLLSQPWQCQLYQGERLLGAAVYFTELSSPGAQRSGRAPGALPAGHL
In words: competitive ELISA format I: His-FGL1 binding to coated LAG3 ECD. (An ELISA detects its analyte on a solid surface through an enzyme-linked reagent.)

Experiment [7] deals with T5, hFc tagged human LAG3 ECD recombinant protein (human, UniProt P18627 23-450).
T5 construct: range 23-450; also called biotin labelled hFc tagged human LAG3 ECD; not shown: human IgG Fc tag
T5 sequence (looked up): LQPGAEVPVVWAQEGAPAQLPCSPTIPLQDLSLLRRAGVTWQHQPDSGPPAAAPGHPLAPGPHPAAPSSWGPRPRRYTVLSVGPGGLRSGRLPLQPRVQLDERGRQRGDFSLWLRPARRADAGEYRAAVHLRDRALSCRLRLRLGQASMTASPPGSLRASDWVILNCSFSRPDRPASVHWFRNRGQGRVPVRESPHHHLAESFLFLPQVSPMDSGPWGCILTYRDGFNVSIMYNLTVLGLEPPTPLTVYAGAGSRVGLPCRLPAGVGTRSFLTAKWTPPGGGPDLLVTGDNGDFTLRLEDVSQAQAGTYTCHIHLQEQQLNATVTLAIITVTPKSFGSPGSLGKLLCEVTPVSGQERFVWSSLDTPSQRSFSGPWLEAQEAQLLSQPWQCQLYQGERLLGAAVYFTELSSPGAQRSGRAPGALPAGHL
In words: competitive ELISA format II: biotin hFc-LAG3 ECD binding to coated His-FGL1. The procedure: (§3) After washing, HRP labeled anti-His 2nd antibody (Sigma) was added and incubated at 37° C. for 1 hour. Then, 100 μl/well of TMB solution (Biotechnology) was added. After incubation for 15 minutes at room temperature, the reaction was stopped by the addition of 50 μl of 1N HCl. OD 450 nm was read. […] After washing, HRP labeled anti-SA 2nd antibody (Sigma) was added and incubated at 37° C. for 1 hour. Then, 100 μl/well of TMB solution (Biotechnology) was added. After incubation for 15 minutes at room temperature, the reaction was stopped by the addition of 50 μl of 1N HCl. OD 450 nm was read. […] The competition assay of format III is a competitive FACS assay. […] After washing, dye labeled anti-His 2nd antibody (Sigma) was added and incubated at 37° C. for 1 hour. Fluorescence intensity was detected.

For experiment [8], the target named is T3, mFc tagged human LAG3 ECD recombinant …. In words: competitive ELISA: mFc tagged human LAG3 ECD binding to plate coated LSECtin ECD. On the procedure:
Activity of the purified chimeric antibodies to block LAG3 and LSECtin interaction was determined by competitive ELISA assay. […] After washing, HRP labeled anti-mouse Fc 2nd antibody (Sigma) was added and incubated at 37° C. for 1 hour. Then, 100 μl/well of TMB solution (Biotechnology) was added. After incubation for 15 minutes at room temperature, the reaction was stopped by the addition of 50 μl of 1N HCl. OD 450 nm was read.

Experiment [9] concerns the target T5, hFc tagged human LAG3 ECD recombinant …. In words: competitive ELISA format II: biotin labeled hFc tagged LAG3 ECD binding to plate coated His tagged human FGL1; 023c run beside 027c and 047c. The procedure:
as §3

B1: 023c (antibody, human IgG4, V domains shown)
VH: QIQLVQSGPVLKKPGETVKISCKASGYTFTESPMNWVKQAPGRGFKWMGMIYTDTGEPTYAEEFKGRFAFSLETSASTAYLQINNLKSEDTATYFCVSDYGSILYWYFDVWGTGTTVTVSS
VL: DIVMTQSHKFMSTSVGDRVSITCKASQDVSTAVAWYQQTPGQSPKLLIYSASYRYTGVPDRFTGSGSGTDFTFTISSVQAEDLAVYYCQQHYNSPPTFGAGTKLELK
notes: human IgG4 S228P / kappa chimeric antibody; also called chimeric antibody 023; ES005-023c; not shown: human kappa light chain constant region (pcDNA3.4-hIgGk vector)
In [1], B1 had a Kd of 456 pM, a koff of 0.000161 s⁻¹ and a kon of 352000 M⁻¹ s⁻¹. Besides, in [2], the Kd worked out at 648 pM, the koff turned out to be 0.000233 s⁻¹ and the on-rate constant (kon) stood at 359000 M⁻¹ s⁻¹. Besides, in experiment [3], a half-maximal response (EC50) required 1300 pM and the “TOP MFI” value came out at 387. For the same molecule, in experiment [4], the concentration for a half-maximal effect (EC50) came to 260 pM and the “TOP MFI” value was 3430. For the same molecule, in experiment [5], the IC50 turned out to be 3700 pM and the “TOP blocking (%)” value stood at 94.6%. In [6], the “Blocking ratio at 66.7 nM (%)” value was 52.9%. For the same molecule, in [7], the IC50 was 1500 pM and the “TOP blocking (%)” value turned out to be 82.8%. In addition, in experiment [8], the “%Blocking at 4 nM” value amounted to 27.8%, the “%Blocking at 20 nM” value worked out at 94.4% and the “%Blocking at 100 nM” value was found to be 94.8%. Besides, in [9], the “IC50 (read off the curve)” value was about 0.3 µg/mL.
